Results from patent US20240025971A1 (ATRECA, published 2024).

Key:
Experiment in all cases: BLI
[1] = biological target: SARS-CoV-2 Nucleocapsid (N) protein (SARS-CoV-2, UniProt P0DTC9 1-419)
SARS-CoV-2 S2 protein = biological target: T1, SARS-CoV-2 S2 protein (SARS-CoV-2, UniProt P0DTC2 686-1213)
T1 construct: domain: S2 protein; also called S2 monomer

SARS-CoV-2 S1 protein = biological target: T2, SARS-CoV-2 S1 protein (SARS-CoV-2, UniProt P0DTC2 16-685)
T2 construct: domain: S1 protein; also called S1 monomer

| Binder | binding result [1] | binding result (SARS-CoV-2 S2 protein) | binding result (SARS-CoV-2 S1 protein) |
| --- | --- | --- | --- |
| AB-009231 (antibody, V domains shown, human IgG1) VH: EVQLVESGGGLVQPGGSLRLSCAASGFTFSSYWMSWVRQAPGKGLEWVANIKQDGSEKYYVDSVKGRFTISRDNAKNSLYLQMNSLRAEDTAVYYCARVSMRFLEWSFYYYYYMDVWGKGTTVTVSS VL: SSELTQDPAVSVALGQTVRITCQGDSLRSYYASWYQQKPGQAPVLVIYGKNNRPSGIPDRFSGSSSGNTASLTITGAQAEDEADYYCNSRDSSGNHLGVVFGGGTKLTVL | no binding (tested: 300 nM) | no binding (tested: 300 nM) | no binding (tested: 300 nM) |
| AB-009237 (antibody, V domains shown, human IgG1) VH: QVQLLQSGAEVKKPGASVSVSCKASGFTFTSYYFHWVRQAPGQGLEWMGIVSPAGGSTNYAQKFQGRVTMTRDTSTSTVHMELRNVRYDDTAVFYCARSVYCSSPSCPHGMDVWGPGTMVTVSS VL: DIQVTQSPSTLSASVGDRVTITCRASQSILTYLAWYQQKPGKAPNLLIYKASNLQSGVPSRFSGSGSGTEFTLTISSLQPDDFATYHCQQYKSYPFSFGQGTKLAIK | no binding (tested: 300 nM) | no binding (tested: 300 nM) | no binding (tested: 300 nM) |
| AB-009174 (antibody, V domains shown, human IgG1) VH: QVQLQQWGAGLLKPSETLSLTCAVYGESFSGYYWNWIRQPPGKGLEWIGEIDQSGSTNYNPSLKSRVTISVDTSKNQFSLKLTSVTAADTAVYYCARVSGRMQLWLRAGYMDVWDKGTTVTVSS VL: QSALTQPASVSGSPGQSITISCTGTSSDVGRYNYVSWYQQHPGKAPKLMIYEVSNRPSGVSNRFSGSKSGNTASLTISGLQAEDEADYYCSSYTTSSTRVFGGGTKLTVL | no binding (tested: 300 nM) | no binding (tested: 300 nM) | no binding (tested: 300 nM) |
| AB-009244 (antibody, V domains shown, human IgG1) VH: EVQLVESGGGLVQPGGSLRLSCAASGFAFNTYGINWVRQAPGKGLEWVSFISSRSTTIHYADSVRGRFTISRDNAKNSLYLQMNNLRDEDTAVYYCARDLLIWFGETGAFDIWGQGTMVTVSS VL: EVVMTQSPATLSVSSGERVTLSCRASQSVSNNLAWYQQKPGQAPRLLIYGASTRATGFPARFSGSGSGTEFTLTISSLQSEDFAVYYCQQYNIWPPGTFGQGTKLEIK | no binding (tested: 300 nM) | no binding (tested: 300 nM) | no binding (tested: 300 nM) |
| AB-009221 (antibody, V domains shown, human IgG1) VH: EVQLVESGGGLVQPGGSLRLSCAASGFTVSSNYMSWVRQAPGKGLEWVSVIYSGGSTYYADSVKGRFTISRHNSKNTLYLQMNSLRAEDTAVYYCARDRNAFDIWGQGTMVIVSS VL: DIQMTQSPSSLSASVGDRVSITCQASQDISNDLNWYQQKPGKAPKLLVYDASKLETGVPPRFSGSGSGTDFTFTISSLQPEDIATYYCQQYDNLPLYSFGQGTKLEIK | no binding (tested: 300 nM) | no binding (tested: 300 nM) | – |
| AB-009239 (antibody, V domains shown, human IgG1) VH: QVHLEESGGGVVQPGRSLRLSCAASGFTFSGYAMHWVRQAPGKGLAWVAVISYDGTNKYYTDSVKGRFSISRDNSNNTLYLQMNSLRTEDTALYYCARALTGYYGQFDFDSWGQGTLVTVSS VL: DVVMTQSPLSLPVTLGQPASISCRSSQSLVHSDGHTYLNWIQQRPGQSPRRLIYKVSNRDSGVPDRFSGSGSGTDFTLKISRVEADDVGIYYCVQGTHWPPWTFGQGTKVEIK | no binding (tested: 300 nM) | no binding (tested: 300 nM) | no binding (tested: 300 nM) |
| AB-009202 (antibody, V domains shown, human IgG1) VH: QVQLVESGGGVVQPGRSLRLSCAASGFTFSSYGMHWVRQAPGKGLEWVAVIWYDGSNKYYADSVKGRFTISRDNSKNTLYLQMNSLRAEDTAVYYCARDGGPEYYFDYWGQGTLVTVSS VL: SYELTQPPSVSVSPGQTARITCSGDALPKQYAYWYQQKPGQAPVLVIYKDSERPSGIPERFSGSSSGTTVTLTISGVQAEDEADYYCQSADSSGTYNVVFGGGTKLTVL | no binding (tested: 300 nM) | no binding (tested: 300 nM) | no binding (tested: 300 nM) |
